Patent US20230093708A1, “PROTEIN NANOPARTICLE DESIGN AND APPLICATION” (Duke University, priority 2020, published 2023)

B1: RLP80-ELP160: RLP-ELP block co-polypeptide, 80 core and 160 corona repeats (protein)
chain: QYPSDGRGQYPSDGRGQYPSDGRGQYPSDGRGQYPSDGRGQYPSDGRGQYPSDGRGQYPSDGRGQYPSDGRGQYPSDGRGQYPSDGRGQYPSDGRGQYPSDGRGQYPSDGRGQYPSDGRGQYPSDGRGQYPSDGRGQYPSDGRGQYPSDGRGQYPSDGRGQYPSDGRGQYPSDGRGQYPSDGRGQYPSDGRGQYPSDGRGQYPSDGRGQYPSDGRGQYPSDGRGQYPSDGRGQYPSDGRGQYPSDGRGQYPSDGRGQYPSDGRGQYPSDGRGQYPSDGRGQYPSDGRGQYPSDGRGQYPSDGRGQYPSDGRGQYPSDGRGQYPSDGRGQYPSDGRGQYPSDGRGQYPSDGRGQYPSDGRGQYPSDGRGQYPSDGRGQYPSDGRGQYPSDGRGQYPSDGRGQYPSDGRGQYPSDGRGQYPSDGRGQYPSDGRGQYPSDGRGQYPSDGRGQYPSDGRGQYPSDGRGQYPSDGRGQYPSDGRGQYPSDGRGQYPSDGRGQYPSDGRGQYPSDGRGQYPSDGRGQYPSDGRGQYPSDGRGQYPSDGRGQYPSDGRGQYPSDGRGQYPSDGRGQYPSDGRGQYPSDGRGQYPSDGRGQYPSDGRGQYPSDGRGQYPSDGRGQYPSDGRGQYPSDGRGQYPSDGRGGAGVPGGGVPGAGVPGGGVPGAGVPGGGVPGAGVPGGGVPGAGVPGGGVPGAGVPGGGVPGAGVPGGGVPGAGVPGGGVPGAGVPGGGVPGAGVPGGGVPGAGVPGGGVPGAGVPGGGVPGAGVPGGGVPGAGVPGGGVPGAGVPGGGVPGAGVPGGGVPGAGVPGGGVPGAGVPGGGVPGAGVPGGGVPGAGVPGGGVPGAGVPGGGVPGAGVPGGGVPGAGVPGGGVPGAGVPGGGVPGAGVPGGGVPGAGVPGGGVPGAGVPGGGVPGAGVPGGGVPGAGVPGGGVPGAGVPGGGVPGAGVPGGGVPGAGVPGGGVPGAGVPGGGVPGAGVPGGGVPGAGVPGGGVPGAGVPGGGVPGAGVPGGGVPGAGVPGGGVPGAGVPGGGVPGAGVPGGGVPGAGVPGGGVPGAGVPGGGVPGAGVPGGGVPGAGVPGGGVPGAGVPGGGVPGAGVPGGGVPGAGVPGGGVPGAGVPGGGVPGAGVPGGGVPGAGVPGGGVPGAGVPGGGVPGAGVPGGGVPGAGVPGGGVPGAGVPGGGVPGAGVPGGGVPGAGVPGGGVPGAGVPGGGVPGAGVPGGGVPGAGVPGGGVPGAGVPGGGVPGAGVPGGGVPGAGVPGGGVPGAGVPGGGVPGAGVPGGGVPGAGVPGGGVPGAGVPGGGVPGAGVPGGGVPGAGVPGGGVPGAGVPGGGVPGAGVPGGGVPGAGVPGGGVPGAGVPGGGVPGAGVPGGGVPGAGVPGGGVPGAGVPGGGVPGAGVPGGGVPGAGVPGGGVPGAGVPGGGVPGAGVPGGGVPGAGVPGGGVP
B2: RLP40-ELP40: RLP-ELP block co-polypeptide, 40 core and 40 corona repeats (protein)
chain: QYPSDGRGQYPSDGRGQYPSDGRGQYPSDGRGQYPSDGRGQYPSDGRGQYPSDGRGQYPSDGRGQYPSDGRGQYPSDGRGQYPSDGRGQYPSDGRGQYPSDGRGQYPSDGRGQYPSDGRGQYPSDGRGQYPSDGRGQYPSDGRGQYPSDGRGQYPSDGRGQYPSDGRGQYPSDGRGQYPSDGRGQYPSDGRGQYPSDGRGQYPSDGRGQYPSDGRGQYPSDGRGQYPSDGRGQYPSDGRGQYPSDGRGQYPSDGRGQYPSDGRGQYPSDGRGQYPSDGRGQYPSDGRGQYPSDGRGQYPSDGRGQYPSDGRGQYPSDGRGGAGVPGGGVPGAGVPGGGVPGAGVPGGGVPGAGVPGGGVPGAGVPGGGVPGAGVPGGGVPGAGVPGGGVPGAGVPGGGVPGAGVPGGGVPGAGVPGGGVPGAGVPGGGVPGAGVPGGGVPGAGVPGGGVPGAGVPGGGVPGAGVPGGGVPGAGVPGGGVPGAGVPGGGVPGAGVPGGGVPGAGVPGGGVPGAGVPGGGVP
B3: RLP40-ELP160: RLP-ELP block co-polypeptide, 40 core and 160 corona repeats (protein)
chain: QYPSDGRGQYPSDGRGQYPSDGRGQYPSDGRGQYPSDGRGQYPSDGRGQYPSDGRGQYPSDGRGQYPSDGRGQYPSDGRGQYPSDGRGQYPSDGRGQYPSDGRGQYPSDGRGQYPSDGRGQYPSDGRGQYPSDGRGQYPSDGRGQYPSDGRGQYPSDGRGQYPSDGRGQYPSDGRGQYPSDGRGQYPSDGRGQYPSDGRGQYPSDGRGQYPSDGRGQYPSDGRGQYPSDGRGQYPSDGRGQYPSDGRGQYPSDGRGQYPSDGRGQYPSDGRGQYPSDGRGQYPSDGRGQYPSDGRGQYPSDGRGQYPSDGRGQYPSDGRGGAGVPGGGVPGAGVPGGGVPGAGVPGGGVPGAGVPGGGVPGAGVPGGGVPGAGVPGGGVPGAGVPGGGVPGAGVPGGGVPGAGVPGGGVPGAGVPGGGVPGAGVPGGGVPGAGVPGGGVPGAGVPGGGVPGAGVPGGGVPGAGVPGGGVPGAGVPGGGVPGAGVPGGGVPGAGVPGGGVPGAGVPGGGVPGAGVPGGGVPGAGVPGGGVPGAGVPGGGVPGAGVPGGGVPGAGVPGGGVPGAGVPGGGVPGAGVPGGGVPGAGVPGGGVPGAGVPGGGVPGAGVPGGGVPGAGVPGGGVPGAGVPGGGVPGAGVPGGGVPGAGVPGGGVPGAGVPGGGVPGAGVPGGGVPGAGVPGGGVPGAGVPGGGVPGAGVPGGGVPGAGVPGGGVPGAGVPGGGVPGAGVPGGGVPGAGVPGGGVPGAGVPGGGVPGAGVPGGGVPGAGVPGGGVPGAGVPGGGVPGAGVPGGGVPGAGVPGGGVPGAGVPGGGVPGAGVPGGGVPGAGVPGGGVPGAGVPGGGVPGAGVPGGGVPGAGVPGGGVPGAGVPGGGVPGAGVPGGGVPGAGVPGGGVPGAGVPGGGVPGAGVPGGGVPGAGVPGGGVPGAGVPGGGVPGAGVPGGGVPGAGVPGGGVPGAGVPGGGVPGAGVPGGGVPGAGVPGGGVPGAGVPGGGVPGAGVPGGGVPGAGVPGGGVPGAGVPGGGVPGAGVPGGGVPGAGVPGGGVPGAGVPGGGVPGAGVPGGGVPGAGVPGGGVPGAGVPGGGVPGAGVPGGGVPGAGVPGGGVPGAGVPGGGVPGAGVPGGGVP

Tests used:
[1] = Static and dynamic light scattering (SLS/DLS) of block co-polypeptides; type: physicochemical; conditions: for Nagg / Rg(nm) / Rh (nm) / ρ: Table 3; for Nagg / Rg(nm) / Rh (nm): 10 μM in PBS, 15 °C; for ρ: shape factor Rg/Rh
Experimental: Key parameters of interest are the hydrophilicity of the corona-forming block, the hydrophilicity of the core block, the overall length of the co-polypeptide and the ratio of the two blocks. Parameters of evaluation are the size, morphology, stability, and thermoresponsive behavior. All measurements were made in 140 mM NaCl, 10 mM phosphate buffer, 3 mM KCl, pH 7.4 unless otherwise specified. Size was evaluated by the hydrodynamic radios (Rh) and radius of gyration (Rg) by dynamic light scattering (DLS) and static light scattering (SLS) respectively. Rg and Rh can be combined to yield the shape factor ρ=Rg/Rh, which provides a rough indication of the morphology of the scatterer. […] For an elongated scatterer, the shape factor depends upon the aspect ratio. A combination of temperature dependent turbidity and DLS was utilized to determine the phase behavior of the block co-polypeptides. Cryogenic transmission electron microscopy (Cryo-TEM) was utilized to evaluate the morphology and provide crucial insight into the hydration of the core/corona chains. Stability of the assembled nanostructure was determined by a shift in the I1/I3 fluorescent bands of pyrene as described previously.
Static and dynamic light scattering measurements (SLS/DLS) were performed using an ALV/CGS-3 goniometer system (Langen, Germany). Samples for the ALV/CGS-3 goniometer system were prepared at a concentration of 10 μM in PBS and filtered through 0.45 μm Millex-GV filters into a 10 mm disposable borosilicate glass tube (Fischer). Simultaneous SLS and DLS measurements were obtained at 15° C. of the ELP for angles between 30°-150° at 5° increments, with each angle consisting of 3 runs for 15 s. SLS experiments were only conducted for self-assembling block co-polypeptides, since the molecular weight of a single block co-polypeptide chain is already known, and the Rg of a single chain is likely near or below the detection limit of the SLS instrument. The differential refractive index (dn/dc) was determined by measuring the refractive index at different concentrations using an Abbemat 500 refractometer (Anton Paar, Graz, Austria). DLS data were analyzed by fitting the autocorrelation function with a cumulant fit, using the built-in ALV software. Hydrodynamic radius (Rh) was plotted against angle and extrapolated to zero. SLS data were analyzed by partial Zimm plots using ALVSTAT software in order to determine the Rg and molecular weight (MW).

[2] = Cryo-TEM micelle core size, inter-core spacing and aspect ratio; type: physicochemical; conditions: for Spacing (nm) / Core radius (nm): Table 4, mean ± standard deviation; for Spacing (nm): inter-core spacing
Experimental: Using the data from FIG. 18, particularly the longest straight line of an individual particle and a corresponding perpendicular measurement were made to describe the aspect ratio of particles observed.
Cryo-TEM experiments were performed at Duke University's Shared Materials Instrumentation Facility (Durham, N.C.). Lacey holey carbon grids (Ted Pella, Redding, Calif.) were glow discharged in a PELCO EasiGlow Cleaning System (Ted Pella, Redding, Calif.). A 3 μL drop (10 μM RLPn-ELP80) was deposited onto the grid, blotted for 3 s with an offset of −3 mm, and vitrified in liquid ethane using the Vitrobot Mark III (FEI, Eindhoven, Netherlands). Prior to vitrification, the sample chamber was maintained at 15° C. and 100% relative humidity to prevent sample evaporation. Grids were transferred to a Gatan 626 cryoholder (Gatan, Pleasanton, Calif.) and imaged with a FEI Tecnai G2 Twin TEM (FEI, Eindhoven, Netherlands), operating at 80 keV. Feature sizes and spacing distances were measured in ImageJ by manual measurement of at least 25 particles.

| Molecule | hydrodynamic radius (Rh) [1] [nm] | radius of gyration (Rg) [1] [nm] | shape factor / form factor (Rg/Rh) [1] | Nagg [1] | Rg(nm) [1] [nm] | Rh (nm) [1] [nm] | ρ [1] | Spacing (nm) [2] [nm] | Core radius (nm) [2] [nm] | core radius (cryo-TEM) [2] [nm] | spacing between particle cores (cryo-TEM) [2] [nm] |
| --- | --- | --- | --- | --- | --- | --- | --- | --- | --- | --- | --- |
| B1 | 93.3 | 78.2 | 0.8 | 1728 | 78.2 | 93.5 | 0.84 | 59.0 ± 13.2 | 29.3 ± 4.5 | – | – |
| B2 | 52.6 | 56.2 | greater than 1 | 91 | 56.2 | 52.6 | 1.13 | 19.5 ± 4.3 | 11.8 ± 1.6 | 11.8 | 19.5 |
| B3 | 92.3 | 70.8 | 0.8 | 246 | 70.8 | 92.3 | 0.8 | 22.3 ± 5.2 | 11.0 ± 1.6 | 11.0 | 22.3 |
